Reference: patent US20080009025A1, “PROTEIN KINASE REGULATION” (priority 1999, published 2008)
Residue numbers refer to the chain shown, from its start.

Experiments:
[1] = biological target: T1, PDK1 (Homo sapiens, UniProt O15530); experiment: Glutathione-Sepharose pull-down of PDK1 with S6K1 or SGK1 from 293 cells; format: binding; conditions: GST-SGK1 forms; wild type Myc-PDK1
T1 construct: Full length PDK1 (residues 1-556); made in house; host or cells: 293 cells
T1 sequence (O15530 1-556): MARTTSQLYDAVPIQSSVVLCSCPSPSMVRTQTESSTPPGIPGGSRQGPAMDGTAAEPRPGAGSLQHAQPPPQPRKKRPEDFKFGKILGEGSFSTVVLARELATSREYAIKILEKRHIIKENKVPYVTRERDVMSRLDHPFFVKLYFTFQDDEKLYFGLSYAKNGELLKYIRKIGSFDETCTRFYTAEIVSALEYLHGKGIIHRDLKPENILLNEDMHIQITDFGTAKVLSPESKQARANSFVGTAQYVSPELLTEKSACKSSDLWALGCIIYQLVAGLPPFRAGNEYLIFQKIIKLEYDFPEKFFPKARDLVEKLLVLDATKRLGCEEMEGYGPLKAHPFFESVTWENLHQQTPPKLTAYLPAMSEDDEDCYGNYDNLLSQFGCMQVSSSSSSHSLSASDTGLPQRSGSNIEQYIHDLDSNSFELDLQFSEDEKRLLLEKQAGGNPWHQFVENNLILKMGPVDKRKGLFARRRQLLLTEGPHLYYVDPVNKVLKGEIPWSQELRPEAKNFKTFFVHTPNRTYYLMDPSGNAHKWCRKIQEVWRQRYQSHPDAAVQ
Procedure: FIG. 21. Interaction of S6K1 and SGK1 with PDK1. 293 cells were transiently transfected with DNA constructs expressing GST, GST-PDK1 wt or PDK1 L155E together with constructs expressing either wild type or the indicated mutants or truncations of HA tagged S6K1 (A) or wild type GST-ΔN-SGK1 or 422D mutant. 36 h post transfection the cells were lysed and GST fusion protein was purified by affinity chromatography on glutathione-Sepharose beads. Aliquots were electrophoresed on a 10% SDS-polyacrylamide gel, stained with Coomassie Blue, or immunoblotted using an anti-FLAG antibody to detect FLAG-S6K1 and anti-Myc antibody to detect Myc-PDK1. To establish that the wild type and mutant proteins were expressed at similar levels, […] of total lysate was electrophoresed on a 10% SDS-polyacrylamide gel and immunoblotted using the indicated antibodies. Duplicates of each condition are shown. Similar results were obtained in two different experiments.
Binding of PDK1 to SGK1 and S6K1. For the data presented in FIG. 22, 293 cells were cotransfected with 10 μg of the wild type or mutant PDK1 plasmid and 10 μg of either the wild type or mutant S6K1 or SGK1. […] The gels were either stained with Coomassie blue, or analysed by immunoblotting with either anti-Flag or anti-Myc antibodies (described below).

[2] = biological target: T2, PDK1-L155E (Homo sapiens, UniProt O15530, L155E); experiment: Phosphorylation of AGC kinase substrates by PDK1 (32P, PhosphoImager); format: biochemical; conditions: PKB[S473D] rate by PDK1-wt = 100
T2 construct: made in house; host or cells: human embryonic kidney 293 cells
T2 sequence (O15530 1-556 L155E): T1 sequence (O15530 1-556) with L155E
Procedure: (§1) Phosphorylation of AGC kinase substrates by PDK1. The phosphorylation of PDK1 substrates was performed in a final volume of 20 μl in a buffer containing 50 mM Tris-HCl pH 7.5, 0.1% (by vol) 2-mercaptoethanol, 10 mM magnesium chloride, 100 μM [γ-^32P]ATP (˜1000 c.p.m./pmol), 0.5 μM microcystin-LR, 0.6 μM AGC kinase substrate and 0.6 to 30 nM wild type PDK1 or the indicated mutant of PDK1.
(§2) Relative phosphorylation of PDK1 substrates. PDK1 substrates were phosphorylated in vitro, subjected to SDS-PAGE, and radioactivity associated with the bands measured using a Phospho-Imager and known amounts of ATP as standard. The phosphorylation rate of PKB[S473D] in the presence of PtdIns (3,4,5)P3 was 2.6 mol/mol PDK1/min and was taken as the relative value of 100. Average values from a representative experiment performed in duplicates are shown.

[3] = biological target: T3, PDK1-wt (Homo sapiens, UniProt O15530); experiment: as above; format: biochemical
T3 construct: made in house; host or cells: human embryonic kidney 293 cells
T3 sequence (O15530 1-556): T1 sequence (O15530 1-556)
Procedure: as §1, §2

B1: DN-SGK: SGK1 lacking the N-terminal 60 amino acids (protein)
chain: SQPQEPELMNANPSPPPSPSQQINLGPSSNPHAKPSDFHFLKVIGKGSFGKVLLARHKAEEVFYAVKVLQKKAILKKKEEKHIMSERNVLLKNVKHPFLVGLHFSFQTADKLYFVLDYINGGELFYHLQRERCFLEPRARFYAAEIASALGYLHSLNIVYRDLKPENILLDSQGHIVLTDFGLCKENIEHNSTTSTFCGTPEYLAPEVLHKQPYDRTVDWWCLGAVLYEMLYGLPPFYSRNTAEMYDNILNKPLQLKPNITNSARHLLEGLLQKDRTKRLGAKDDFMEIKSHVFFSLINWDDLINKKITPPFNPNVSGPNDLRHFDPEFTEEPVPNSIGKSPDSVLVTASVKEAAEAFLGFSYAPPTDSFL
modifications: left off: a dimerising Fc or GST
notes: SGK1 lacking the N-terminal 60 amino acids
B1 was tested, and the “interaction with Myc-PDK1” value [1] was “did not interact”, the “Relative phosphorylation of PDK1 substrates PDK1-L155E +PIFtide” value ([2]; with PIFtide) was 2.4 and the “Relative phosphorylation of PDK1 substrates PDK1-L155E —” value ([2]; without PIFtide) was 3.3. The “phosphorylated at a lower rate than SGK1[T422D]” value [3] was 10 fold, the “Relative phosphorylation of PDK1 substrates PDK1-wt +PIFtide” value ([3]; with PIFtide, PKB[S473D] rate with PtdIns(3,4,5)P3 = 100) was 3.8 and the “Relative phosphorylation of PDK1 substrates PDK1-wt —” value ([3]; without PIFtide, PKB[S473D] rate with PtdIns(3,4,5)P3 = 100) was 8.
